Patent US20160024487

What was measured:
[1] = system: T1, Lys(Dnp)-ATNATX4X3PRIVGG-Lys(Abz), X4 = G, X3 = P
T1 sequence: KATNATGPPRIVGGK

[2] = system: T2, Lys(Dnp)-ATNATX4X3PRIVGG-Lys(Abz), X4 = S, X3 = S
T2 sequence: KATNATSSPRIVGGK

[3] = system: T3, Lys(Dnp)-ATNATX4X3PRIVGG-Lys(Abz), X4 = P, X3 = P
T3 sequence: KATNATPPPRIVGGK

[4] = system: T4, Lys(Dnp)-ATNATX4X3PRIVGG-Lys(Abz), X4 = G, X3 = H
T4 sequence: KATNATGHPRIVGGK

[5] = system: T5, Lys(Dnp)-ATNATX4X3PRIVGG-Lys(Abz), X4 = K, X3 = F
T5 sequence: KATNATKFPRIVGGK

[6] = system: T6, Lys(Dnp)-ATNATX4X3PRIVGG-Lys(Abz), X4 = P, X3 = E
T6 sequence: KATNATPEPRIVGGK

[7] = system: T7, Lys(Dnp)-ATNATX4X3PRIVGG-Lys(Abz), X4 = S, X3 = R
T7 sequence: KATNATSRPRIVGGK

[8] = system: T8, Lys(Dnp)-ATNATX4X3PRIVGG-Lys(Abz), X4 = H, X3 = R
T8 sequence: KATNATHRPRIVGGK

[9] = system: T9, Lys(Dnp)-ATNATX4X3PRIVGG-Lys(Abz), X4 = N, X3 = S
T9 sequence: KATNATNSPRIVGGK

[10] = system: T10, Lys(Dnp)-ATNATX4X3PRIVGG-Lys(Abz), X4 = N, X3 = V
T10 sequence: KATNATNVPRIVGGK

[11] = system: T11, Lys(Dnp)-ATNATX4X3PRIVGG-Lys(Abz), X4 = H, X3 = G
T11 sequence: KATNATHGPRIVGGK

[12] = system: T12, Lys(Dnp)-ATNATX4X3PRIVGG-Lys(Abz), X4 = Q, X3 = L
T12 sequence: KATNATQLPRIVGGK

[13] = system: T13, Lys(Dnp)-ATNATX4X3PRIVGG-Lys(Abz), X4 = T, X3 = V
T13 sequence: KATNATTVPRIVGGK

[14] = system: T14, Lys(Dnp)-ATNATX4X3PRIVGG-Lys(Abz), X4 = Q, X3 = V
T14 sequence: KATNATQVPRIVGGK

[15] = system: T15, Lys(Dnp)-ATNATX4X3PRIVGG-Lys(Abz), X4 = G, X3 = G
T15 sequence: KATNATGGPRIVGGK

[16] = system: T16, Lys(Dnp)-ATNATX4X3PRIVGG-Lys(Abz), X4 = S, X3 = F
T16 sequence: KATNATSFPRIVGGK

[17] = system: T17, Lys(Dnp)-ATNATX4X3PRIVGG-Lys(Abz), X4 = N, X3 = Q
T17 sequence: KATNATNQPRIVGGK

[18] = system: T18, Lys(Dnp)-ATNATX4X3PRIVGG-Lys(Abz), X4 = S, X3 = G
T18 sequence: KATNATSGPRIVGGK

[19] = system: T19, Lys(Dnp)-ATNATX4X3PRIVGG-Lys(Abz), X4 = T, X3 = I
T19 sequence: KATNATTIPRIVGGK

[20] = system: T20, Lys(Dnp)-ATNATX4X3PRIVGG-Lys(Abz), X4 = Y, X3 = I
T20 sequence: KATNATYIPRIVGGK

[21] = system: T21, Lys(Dnp)-ATNATX4X3PRIVGG-Lys(Abz), X4 = D, X3 = F
T21 sequence: KATNATDFPRIVGGK

[22] = system: T22, Lys(Dnp)-ATNATX4X3PRIVGG-Lys(Abz), X4 = E, X3 = K
T22 sequence: KATNATEKPRIVGGK

[23] = system: T23, Lys(Dnp)-ATNATX4X3PRIVGG-Lys(Abz), X4 = N, X3 = Y
T23 sequence: KATNATNYPRIVGGK

[24] = system: T24, Lys(Dnp)-ATNATX4X3PRIVGG-Lys(Abz), X4 = T, X3 = F
T24 sequence: KATNATTFPRIVGGK

[25] = system: T25, Lys(Dnp)-ATNATX4X3PRIVGG-Lys(Abz), X4 = N, X3 = F
T25 sequence: KATNATNFPRIVGGK

[26] = system: T26, Lys(Dnp)-ATNATX4X3PRIVGG-Lys(Abz), X4 = F, X3 = D
T26 sequence: KATNATFDPRIVGGK

[27] = system: T27, Lys(Dnp)-ATNATX4X3PRIVGG-Lys(Abz), X4 = E, X3 = H
T27 sequence: KATNATEHPRIVGGK

[28] = system: T28, Lys(Dnp)-ATNATX4X3PRIVGG-Lys(Abz), X4 = V, X3 = D
T28 sequence: KATNATVDPRIVGGK

[29] = system: T29, Lys(Dnp)-ATNATX4X3PRIVGG-Lys(Abz), X4 = N, X3 = G
T29 sequence: KATNATNGPRIVGGK

[30] = system: T30, Lys(Dnp)-ATNATX4X3PRIVGG-Lys(Abz), X4 = T, X3 = A
T30 sequence: KATNATTAPRIVGGK

[31] = system: T31, Lys(Dnp)-ATNATX4X3PRIVGG-Lys(Abz), X4 = N, X3 = T
T31 sequence: KATNATNTPRIVGGK

[32] = system: T32, Lys(Dnp)-ATNATX4X3PRIVGG-Lys(Abz), X4 = H, X3 = Y
T32 sequence: KATNATHYPRIVGGK

[33] = system: T33, Lys(Dnp)-ATNATX4X3PRIVGG-Lys(Abz), X4 = T, X3 = G
T33 sequence: KATNATTGPRIVGGK

[34] = system: T34, Lys(Dnp)-ATNATX4X3PRIVGG-Lys(Abz), X4 = G, X3 = Y
T34 sequence: KATNATGYPRIVGGK

[35] = system: T35, Lys(Dnp)-ATNATX4X3PRIVGG-Lys(Abz), X4 = Q, X3 = M
T35 sequence: KATNATQMPRIVGGK

[36] = system: T36, Lys(Dnp)-ATNATX4X3PRIVGG-Lys(Abz), X4 = G, X3 = A
T36 sequence: KATNATGAPRIVGGK

[37] = system: T37, Lys(Dnp)-ATNATX4X3PRIVGG-Lys(Abz), X4 = N, X3 = K
T37 sequence: KATNATNKPRIVGGK

[38] = system: T38, Lys(Dnp)-ATNATX4X3PRIVGG-Lys(Abz), X4 = H, X3 = T
T38 sequence: KATNATHTPRIVGGK

[39] = system: T39, Lys(Dnp)-ATNATX4X3PRIVGG-Lys(Abz), X4 = H, X3 = A
T39 sequence: KATNATHAPRIVGGK

Substance: Human plasma purified Factor Xa
- FXa kcat/KM [1]: 7.5 M⁻¹ s⁻¹
- FXa kcat/KM [2]: 40 M⁻¹ s⁻¹
- FXa kcat/KM [3]: 14 M⁻¹ s⁻¹
- FXa kcat/KM [4]: 58 M⁻¹ s⁻¹
- FXa kcat/KM [5]: 35 M⁻¹ s⁻¹
- FXa kcat/KM [6]: 1000 M⁻¹ s⁻¹
- FXa kcat/KM [7]: 130 M⁻¹ s⁻¹
- FXa kcat/KM [8]: 140 M⁻¹ s⁻¹
- FXa kcat/KM [9]: 16 M⁻¹ s⁻¹
- FXa kcat/KM [10]: 17 M⁻¹ s⁻¹
- FXa kcat/KM [11]: 47 M⁻¹ s⁻¹
- FXa kcat/KM [12]: 480 M⁻¹ s⁻¹
- FXa kcat/KM [13]: 20 M⁻¹ s⁻¹
- FXa kcat/KM [14]: 430 M⁻¹ s⁻¹
- FXa kcat/KM [15]: 16 M⁻¹ s⁻¹
- FXa kcat/KM [16]: 17 M⁻¹ s⁻¹
- FXa kcat/KM [17]: 27 M⁻¹ s⁻¹
- FXa kcat/KM [18]: 24 M⁻¹ s⁻¹
- FXa kcat/KM [19]: 63 M⁻¹ s⁻¹
- FXa kcat/KM [20]: 66 M⁻¹ s⁻¹
- FXa kcat/KM [21]: 11 M⁻¹ s⁻¹
- FXa kcat/KM [22]: 7.9 M⁻¹ s⁻¹
- FXa kcat/KM [23]: 15 M⁻¹ s⁻¹
- FXa kcat/KM [24]: 22 M⁻¹ s⁻¹
- FXa kcat/KM [25]: 14 M⁻¹ s⁻¹
- FXa kcat/KM [26]: 63 M⁻¹ s⁻¹
- FXa kcat/KM [27]: 7.7 M⁻¹ s⁻¹
- FXa kcat/KM [28]: 70 M⁻¹ s⁻¹
- FXa kcat/KM [29]: 9.2 M⁻¹ s⁻¹
- FXa kcat/KM [30]: 20 M⁻¹ s⁻¹
- FXa kcat/KM [31]: 15 M⁻¹ s⁻¹
- FXa kcat/KM [32]: 41 M⁻¹ s⁻¹
- FXa kcat/KM [33]: 21 M⁻¹ s⁻¹
- FXa kcat/KM [34]: 34 M⁻¹ s⁻¹
- FXa kcat/KM [35]: 2200 M⁻¹ s⁻¹
- FXa kcat/KM [36]: 50 M⁻¹ s⁻¹
- FXa kcat/KM [37]: 14 M⁻¹ s⁻¹
- FXa kcat/KM [38]: 50 M⁻¹ s⁻¹
- FXa kcat/KM [39]: 53 M⁻¹ s⁻¹
